Data: the supplement of paper PMC10567573

B1: LOXL2 (parent)
chain: YVEVKEGKTWKQICDKHWTAKNSR
B2: COX4I1 (parent)
chain: FDKEWVAKQTKRMLDMKVNPIQGL

Variants of: B1
Assay: protein stability index of a GFP-peptide fusion (GPS, HEK-293T) (PSI 1-6); higher = more stable
Conditions: c terminus: a fixed tail appended
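Further: lentivirally expressed fusions sorted by FACS into six bins by GFP to DsRed ratio, PSI derived from sequencing read proportions per bin multiplied by bin number.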

Protein stability index, by site and new letter:
G7: W 2.52; Y 2.18
K8: A 2.49; C 2.17; D 2.41; E 2.46; F 2.42; G 1.85; H 1.44; I 2.67; L 2.01; M 1.91; N 1.68; P 2.63; Q 3.07; R 2.24; S 2.44; T 1.55; V 2.07; Y 2.21
T9: C 4.04; D 1.6; E 1.61; F 4.42; G 2.11; H 1.86; I 2.48; K 2.43; L 2.52; M 2.92; N 1.99; P 2; R 2.55; S 2.56; V 1.94; W 3.01; Y 2.33
W10: A 2.42; C 2.17; D 3.03; E 2.99; F 2.47; G 2.23; H 2.44; I 2.3; K 2.61; L 2.46; M 2.37; N 2.5; P 2.69; Q 2.7; R 2.2; S 2.73; T 2.91; V 2.78; Y 1.93
K11: C 2.28; D 1.18; E 2.28; F 3.38; G 2.77; H 2.45; I 2.23; L 2.53; M 2.1; P 1.99; Q 1.83; R 2.52; S 3.37; T 2.93; V 2.1; W 3.53; Y 4.35
Q12: A 1.56; C 1.58; D 2.02; E 1.58; F 2.46; G 2.63; H 3.06; I 3.16; K 2.63; L 2.39; M 2.64; N 2.61; P 2.31; R 3.12; T 2.43; V 1.48; W 2.42; Y 2.07
I13: A 2.73; C 2.6; D 3.54; E 2.33; H 2.42; K 2.81; L 1.4; M 2.19; N 1.37; P 3.38; Q 2.5; R 2.59; S 2.38; T 2.68; V 2.44; W 2.25; Y 1.6
C14: A 1.77; D 2.4; E 2.5; F 2.07; G 2.31; H 4.51; I 2.16; K 1.45; L 1.8; M 2.98; N 1.99; P 1.98; Q 1.74; R 2.33; S 1.75; T 2.52; V 1.93; W 4.18; Y 1.93
D15: A 2.96; C 1.72; E 3.34; F 2.12; G 2.64; H 2.49; I 1.83; K 2.94; L 2.62; M 2.05; N 2.27; P 1.76; Q 2.56; R 1.8; S 2.56; T 2.26; V 2.49; W 2.6; Y 2.13
K16: A 2.08; D 3.38; E 1.19; F 2.02; G 3.14; H 2.83; I 2.32; L 2.42; M 2.3; N 1.93; P 1.95; Q 2.24; R 3.43; S 3.34; V 2.46; W 2.44; Y 2.82
H17: A 3; C 1.56; D 1.84; E 2.3; F 3.2; G 3.27; I 2.14; K 2.98; L 2.81; M 2.41; N 2.89; P 3.06; Q 1.53; R 3.35; S 1.82; T 1.97; V 3.44; Y 3.47
W18: A 2.76; C 2.54; D 3.01; E 2.52; F 2.54; G 2; H 3.04; I 1.96; K 2.11; L 2.19; M 2.46; N 2.58; P 1.94; Q 1.84; R 1.5; S 2.05; T 1.94; V 2.66; Y 1.56
T19: A 1.45; C 2.75; D 2.34; E 2.15; F 2.16; G 2.56; H 1.78; K 1.87; L 1.39; M 1.99; N 2.95; P 2.11; Q 3.17; R 1.77; S 1.72; V 2.26; W 2.64; Y 2.29
A20: C 2.46; D 2.59; E 1.98; F 1.9; G 1.75; H 2.07; I 1.99; K 2.25; L 2.16; M 2.35; P 1.67; Q 2.54; R 2.71; S 2.73; T 2.03; V 2.11; Y 2.27
K21: A 2.3; D 2.34; E 3.16; F 3.06; G 2.14; H 1.85; I 1.68; L 1.95; M 2.13; N 2.15; P 2.67; R 3.06; S 1.99; T 2.5; V 2.03; W 1.96; Y 2.14
N22: A 3.24; C 1.97; D 2.42; E 2.25; F 2.29; G 2.13; H 2.99; I 2.8; K 3.05; L 1.78; M 2.35; P 1.89; Q 1.82; R 1.8; S 1.92; T 2.54; V 2.79; W 3.39; Y 2.23
S23: A 2.97; C 2.73; D 2.41; E 2.17; F 1.19; G 1.83; H 2; I 2.82; K 2.88; L 2.42; M 1.97; N 1.71; P 1.94; R 2.09; T 2.33; V 2.15; Y 2.64
R24: A 2.42; C 2.72; D 1.91; E 2.33; F 2.94; G 1.53; H 3.07; I 1.74; K 2.76; L 2.46; M 2.09; N 2.48; P 1.69; Q 2.33; S 3.24; T 3.49; V 2.2; W 1.79; Y 3.45

Variants of: B2
Assay: as above
Conditions: c terminus: a fixed tail appended

Protein stability index: each site, then its substitutions
F1: A 3.42; C 2.62; D 4.38; E 3.19; G 2.92; H 3.13; I 3.11; K 3.57; L 3.57; M 3.23; N 3.79; P 3.44; Q 3.31; R 2.42; S 3.34; T 3.71; V 2.77; W 2.17; Y 1.71
D2: A 2.65; C 4.02; E 1.89; G 1.55; I 2.45; K 1.62; L 1.09; M 1.93
